Data taken from PMC12638309.

T1: Mam2, fungal peptide-sensing GPCR (P-factor) (UniProt Q00619)
T1 sequence: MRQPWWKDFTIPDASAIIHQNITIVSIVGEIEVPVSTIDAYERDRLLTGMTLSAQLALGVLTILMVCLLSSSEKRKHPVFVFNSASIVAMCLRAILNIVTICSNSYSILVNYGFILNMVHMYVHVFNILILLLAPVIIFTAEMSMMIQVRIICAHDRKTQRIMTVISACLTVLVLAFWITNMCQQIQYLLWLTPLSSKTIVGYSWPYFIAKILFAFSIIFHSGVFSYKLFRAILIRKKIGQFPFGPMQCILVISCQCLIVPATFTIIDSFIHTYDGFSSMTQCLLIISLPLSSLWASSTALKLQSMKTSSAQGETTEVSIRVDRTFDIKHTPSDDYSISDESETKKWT

T2: Ste2, native ɑ-factor pheromone-sensing mating GPCR (S. cerevisiae) (UniProt D6VTK4)
T2 sequence: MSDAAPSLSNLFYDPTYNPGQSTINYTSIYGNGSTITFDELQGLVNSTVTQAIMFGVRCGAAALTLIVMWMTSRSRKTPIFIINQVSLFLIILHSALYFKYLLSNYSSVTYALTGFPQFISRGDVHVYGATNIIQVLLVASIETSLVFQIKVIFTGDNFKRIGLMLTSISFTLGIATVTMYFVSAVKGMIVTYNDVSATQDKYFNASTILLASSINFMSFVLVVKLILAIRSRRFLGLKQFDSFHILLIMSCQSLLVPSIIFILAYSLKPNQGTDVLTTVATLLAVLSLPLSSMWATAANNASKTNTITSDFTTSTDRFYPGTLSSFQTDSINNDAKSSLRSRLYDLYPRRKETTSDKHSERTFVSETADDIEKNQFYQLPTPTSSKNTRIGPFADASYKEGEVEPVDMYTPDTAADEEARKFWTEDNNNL


Key:
[1] = target: T1, Mam2, fungal peptide-sensing GPCR (P-factor)
[2] = target: T2, Ste2, native ɑ-factor pheromone-sensing mating GPCR (S. cerevisiae)
[3] = target: T2, Ste2, native ɑ-factor pheromone-sensing mating GPCR (S. cerevisiae); remark: listed apart in the source

| Binder | fold change of surface-displayed CD19 (P FUS1-CD19 output of the pheromone response pathway, flow cytometry) in yeast expressing Mam2 (DIX60), 0, 1 and 10 µM P-factor, 20 h, pH 5 [1] [fold] | fold change of surface-displayed CD19 (P FUS1-CD19 output of the pheromone response pathway, flow cytometry) in yeast expressing Ste2 (DIX45), 0, 0.01 and 1 µM ɑ-factor, 20 h, pH 5 [2] [fold] | fold up-regulation of surface-displayed CD19 from P FIG1 in Ste2 yeast, 0-100 µM ɑ-factor, 20 h [3] [fold] | fold up-regulation of surface-displayed CD19 from P FUS1 in Ste2 yeast, 0-100 µM ɑ-factor, 20 h [3] [fold] | fold up-regulation of surface-displayed CD19 from P MFA2 in Ste2 yeast, 0-100 µM ɑ-factor, 20 h [3] [fold] | fold up-regulation of surface-displayed CD19 from P TDH3 (pheromone response pathway boost) in Ste2 yeast, 0-100 µM ɑ-factor, 20 h [3] [fold] |
| --- | --- | --- | --- | --- | --- | --- |
| TYADFLRAYQSWNTFVNPDRPNL [P-factor] | 249 |  |  |  |  |  |
| WHWLQLKPGQPMY [ɑ-factor] |  | 312 | 630 | 774 | 323 | 3.1 |
